{"source": "paper PMC6082575", "key": {"[1]": {"target": "C-X-C chemokine receptor type 4 (mouse, on cultured hippocampal neurons) (mouse (endogenous in cultured hippocampal neurons)) (UniProt P70658)", "sequence (P70658 whole entry)": "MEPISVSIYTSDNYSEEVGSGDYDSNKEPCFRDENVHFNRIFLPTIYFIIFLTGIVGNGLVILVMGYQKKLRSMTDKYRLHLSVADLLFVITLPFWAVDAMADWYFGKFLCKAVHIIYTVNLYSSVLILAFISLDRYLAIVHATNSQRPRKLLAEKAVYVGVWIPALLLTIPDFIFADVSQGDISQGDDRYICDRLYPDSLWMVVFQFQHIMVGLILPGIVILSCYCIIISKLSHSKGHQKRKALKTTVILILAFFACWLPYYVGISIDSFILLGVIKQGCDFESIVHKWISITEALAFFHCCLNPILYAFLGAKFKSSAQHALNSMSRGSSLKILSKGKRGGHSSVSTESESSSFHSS"}, "[2]": {"target": "C-X-C chemokine receptor type 4 (feline, on cultured hippocampal neurons) (cat (endogenous in cultured feline hippocampal neurons)) (UniProt P56498)", "sequence (P56498 whole entry)": "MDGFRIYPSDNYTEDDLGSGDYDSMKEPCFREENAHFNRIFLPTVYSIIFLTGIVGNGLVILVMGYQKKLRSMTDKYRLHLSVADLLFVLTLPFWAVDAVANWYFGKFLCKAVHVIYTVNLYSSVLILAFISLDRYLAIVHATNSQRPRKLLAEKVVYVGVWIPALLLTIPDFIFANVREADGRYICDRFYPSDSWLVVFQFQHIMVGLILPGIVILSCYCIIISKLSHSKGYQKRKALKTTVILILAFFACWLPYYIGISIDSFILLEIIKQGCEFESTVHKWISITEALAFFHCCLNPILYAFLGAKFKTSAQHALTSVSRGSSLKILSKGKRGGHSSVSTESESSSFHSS"}, "[3]": {"target": "C-X-C chemokine receptor type 4 (mouse, on cultured hippocampal neurons) (mouse (endogenous in cultured hippocampal neurons)) (UniProt P70658)", "remark": "listed apart in the source"}}, "data": [{"substance": "HIV-1 IIIB gp120 Recombinant Protein (from UniProt P04578 33-511) (ligand)", "values": [{"measurement": "normalised total Ca2+ activity (GCaMP5 imaging) in cultured mouse hippocampal neurons treated with 1-nM gp120 (IIIB) and 200-nM AMD3100 (CXCR4 antagonist)", "setting": "[1]", "result": "0.85 ΔF/Fmin"}]}, {"substance": "stromal cell-derived factor-1 (from UniProt P48061 22-93) (ligand)", "values": [{"measurement": "normalised total Ca2+ activity (GCaMP5 imaging) in cultured mouse hippocampal neurons treated with 20-nM SDF-1 and 200-nM AMD3100 (CXCR4 antagonist)", "setting": "[1]", "result": "1.26 ΔF/Fmin"}]}, {"substance": "FIV envelope glycoprotein gp95 (Fc fusion)", "values": [{"measurement": "normalised total Ca2+ activity (GCaMP5 imaging) in cultured feline hippocampal neurons treated with 1-nM gp95 and 200-nM AMD3100 (CXCR4 antagonist)", "setting": "[2]", "result": "0.99 ΔF/Fmin"}, {"measurement": "normalised total Ca2+ activity (GCaMP5 imaging) in cultured mouse hippocampal neurons treated with 1-nM gp95 and 200-nM AMD3100 (CXCR4 antagonist)", "setting": "[3]", "result": "1.18 ΔF/Fmin"}]}]}
